Assay results published in the supplement of paper PMC10126150.
± gives the standard deviation of the averaged measurements.

tested on: ATP; test: switch fluorescence ratio, 500 uM ATP over buffer (Cy3 cluster intensity, sum of 5 cycles each) (fold (ratio)); higher = stronger signal-on switching upon ATP binding; sequences stand for … in TCGTCGGCAGCGTCAGATGTGTATAAGAGACAGTTTTTTTTTTTTTTTTTTTTTTTTT…TC; conditions: aptamer strand: ATP DNA aptamer (quencher-CACCTGGGGGAGTATTGCGGAGGAAGG + anchor), 100 nM annealed; ATP concentration: 500 uM
How it was run: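 The fluorescence ratio divides summed target-cycle Cy3 intensity by summed buffer-cycle Cy3 intensity for each cluster and is averaged per switch-domain sequence. Cy3-labelled switching-strand clusters on a modified Illumina MiSeq flow-cell were annealed to 100 nM quencher-labelled ATP aptamer, then imaged in selection buffer and again after 15 min with 500 uM ATP at 22 °C. Five such cycles were run, with NaOH stripping and re-annealing between them, and clusters outside 100-1000 RFU were excluded.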
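Further: ATP exposure 15 min at 22 °C before imaging.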

Row | Sequence | switch fluorescence ratio
1 | GTTGTCGTTT | 0.99104 ± 0.00015
2 | TTTAATAGTG | 0.971 ± 0.014
3 | GGTTATTTTG | 1.01 ± 0.015
4 | AAAATGTTCC | 1.19 ± 0.025
5 | GATATTTGTG | 0.995 ± 0.016
6 | TGTTTATAAT | 0.99 ± 0.013
7 | CGGGATCGTC | 0.977 ± 0.024
8 | GGGAATAGT | 0.9898 ± 0.0014
9 | AGGGAGTGCT | 1.02 ± 0.013
10 | GAGGGTTCGG | 0.972 ± 0.031
11 | TATGCTAAGG | 0.996 ± 0.025
12 | AGGAATGGCT | 0.985 ± 0.017
13 | GGTGGGTGGG | 0.999 ± 0.042
14 | AGCAGTTGGG | 1.03 ± 0.065
15 | TATTTAGGTT | 1.006 ± 0.006
16 | AGGTGTTATT | 1.005 ± 0.0074
17 | TTACGATTTT | 0.993 ± 0.039
18 | CGGGATTCGT | 1 ± 0.057
19 | GATTATTAGC | 0.9999 ± 0.004
20 | GCCCGTCTGA | 0.985 ± 0.075
21 | GGGGATTCAA | 0.988 ± 0.018
22 | GGGAGGGCGT | 0.981 ± 0.034
23 | TAGGGGTACA | 1.03 ± 0.016
24 | GGGGAAATGG | 1.01 ± 0.025
25 | TTGGGGTATT | 1.01 ± 0.025

Row | Sequence | switch fluorescence ratio
26 | GGGATAAGGA | 0.99 ± 0.044
27 | ACGGCGAGGG | 1.02 ± 0.039
28 | CCTTCCTGTG | 3.62 ± 0.024
29 | TTAAACCGGT | 1.03 ± 0.037
30 | TCCGAAGGTA | 1.07 ± 0.025
31 | AGAGGCGTAT | 0.974 ± 0.011
32 | TGGGCCAGTT | 0.981 ± 0.035
33 | GTGGCTGGGT | 0.981 ± 0.015
34 | GGGAGAGCGG | 0.9662 ± 0.0095
35 | GAGCGTGACG | 1 ± 0.045
36 | TAAGTCCTGT | 0.998 ± 0.033
37 | TACGAGGGTC | 0.969 ± 0.024
38 | GGAGTCCGTT | 1.02 ± 0.046
39 | TTTTGGTATA | 1.05 ± 0.055
40 | TCCGTCACTA | 1.438 ± 0.0074
41 | GCTTGGATCG | 0.993 ± 0.022
42 | TTAACGGCGC | 1.04 ± 0.081
43 | TAGCTGGCAC | 1.02 ± 0.0034
44 | CGCAAAAGGG | 1.54 ± 0.41
45 | TGATGGGGGT | 1.04 ± 0.042
46 | TGGGGGTAAA | 0.9997 ± 0.0091
47 | CAGACAGTTT | 0.993 ± 0.013
48 | TGGGGAAGCG | 0.988 ± 0.011
49 | AACATCTAGA | 0.965 ± 0.011
50 | ATATGGGAGG | 0.969 ± 0.016

Row | Sequence | switch fluorescence ratio
51 | TTTTGCATTG | 1.07 ± 0.058
52 | AACGAGGGGA | 0.9716 ± 0.0045
53 | GTGAGTCGGG | 0.987 ± 0.02
54 | TTTTTGCTAG | 0.986 ± 0.013
55 | CCGGGGGGGT | 1.09 ± 0.077
56 | CAGCGGGACG | 1.02 ± 0.035
57 | TAGGTGGCGT | 1.006 ± 0.0028
58 | GGGTAGACAG | 0.9316 ± 0.0069
59 | TGGGTTAGGT | 0.977 ± 0.022
60 | GTCATGAGAT | 0.9987 ± 0.0047
61 | TGCTGGTCTC | 1 ± 0.015
62 | AGGCAGAATC | 1.01 ± 0.037
63 | CCGTGGGTTT | 1.059 ± 0.0031
64 | ATAATCCTTG | 1.01 ± 0.005
65 | AAGGCAGGTC | 1.02 ± 0.029
66 | GTTGGAAAGT | 0.99 ± 0.022
67 | CATTTGGGAC | 1.02 ± 0.047
68 | TAAAAGCTAA | 1 ± 0.031
69 | TTTTTCGTCA | 1.037 ± 0.0074
70 | TCCTATTGTG | 1.03 ± 0.042
71 | ATTGAGTGTG | 0.979 ± 0.022
72 | TGGTAGTAGG | 0.995 ± 0.017
73 | CGGAGGGTGG | 0.961 ± 0.041
74 | GTTGTTTAGC | 0.974 ± 0.022
75 | GGGGTTCTGC | 0.952 ± 0.039

Row | Sequence | switch fluorescence ratio
76 | TGCATTCTGA | 1.02 ± 0.025
77 | CAGAACGCTG | 1.35 ± 0.12
78 | TTTGTGGCTA | 1.03 ± 0.031
79 | CCTTAGTTGG | 1.02 ± 0.056
80 | TGACAGGGCT | 1.01 ± 0.011
81 | TGGGGTGCGA | 1.01 ± 0.042
82 | AATAAGGGGC | 1.0051 ± 0.00093
83 | TTAATTATCA | 0.998 ± 0.018
84 | GCAGTTAGGG | 0.995 ± 0.079
85 | CAATCTAAAT | 0.969 ± 0.027
86 | GTGGGACAGC | 1.02 ± 0.052
87 | AATTGGTGGG | 0.9916 ± 0.0084
88 | TTTCGGAGGG | 0.982 ± 0.034
89 | AATTGTTTAT | 0.9998 ± 0.0092
90 | TGCAAGTGGT | 1.54 ± 0.75
91 | ATTGTTACGT | 0.998 ± 0.012
92 | CTTATTTTTT | 1.01 ± 0.029
93 | CTAGCATCCG | 1.03 ± 0.016
94 | GGATTCATGG | 1.01 ± 0.021
95 | GGCCTGGGTT | 0.967 ± 0.0098
96 | ATAAATGGGC | 0.972 ± 0.014
97 | TATAGGGTTG | 0.999 ± 0.033
98 | ATGGTGTTCG | 0.987 ± 0.019
99 | AACTGAGTGC | 1 ± 0.043
100 | AATAAGCTCG | 0.9792 ± 0.0018

Row | Sequence | switch fluorescence ratio
101 | TAATAGAGGG | 1.03 ± 0.027
102 | CCTCAAAGCT | 1.794 ± 0.0088
103 | CCAAGGGGGG | 1.11 ± 0.22
104 | TGGCATCTGT | 0.972 ± 0.03
105 | TAGAGAGCT | 1.02 ± 0.015
106 | ACGTCAGTCA | 0.976 ± 0.023
107 | AGCGTTGAAG | 0.997 ± 0.022
108 | TAGTGCGGGA | 1.02 ± 0.073
109 | ATAAAAACAT | 1 ± 0.027
110 | TCGGGATAGT | 1.03 ± 0.039
111 | GGCGTCCTCT | 1.05 ± 0.034
112 | TGTTAATGGT | 0.994 ± 0.025
113 | GGGTAGAAAA | 1.01 ± 0.043
114 | AGTTTATGCA | 1 ± 0.017
115 | GTTACAAGAC | 1.21 ± 0.048
116 | AGTACGGGGG | 0.992 ± 0.021
117 | TAAATTAGCC | 1.03 ± 0.014
118 | ATTGTGTACT | 1 ± 0.031
119 | CCGGGAACGC | 1.29 ± 0.024
120 | TCCTATACTA | 1.035 ± 0.0094
121 | ACTTTAGGGG | 1.06 ± 0.044
122 | CTAGATTTGA | 1 ± 0.024
123 | TGTTTCTAGG | 0.979 ± 0.029
124 | ATAGATGATC | 1 ± 0.031
125 | CCAAAAAAAG | 1.03 ± 0.032

Row | Sequence | switch fluorescence ratio
126 | TTCGGGTGCC | 1.03 ± 0.057
127 | GTTCTTTGGG | 0.995 ± 0.013
128 | ACGTATCCGG | 0.9932 ± 0.0067
129 | GGGAGTTAAT | 0.97 ± 0.019
130 | ATGTCAAGGG | 0.9944 ± 0.0085
131 | GGTGGAAAGG | 0.982 ± 0.043
132 | GGTAGATGCG | 1.03 ± 0.04
133 | GGGAGGTTTT | 1.04 ± 0.084
134 | CGTAGGTGTG | 1.02 ± 0.021
135 | AATTGACCCC | 1.09 ± 0.023
136 | AGGGATTTAA | 0.988 ± 0.022
137 | GTCAGCAAAT | 1.05 ± 0.02
138 | TTGGTTCTGG | 0.962 ± 0.038
139 | ATGCAGACGA | 1.1 ± 0.013
140 | TATTGTCGTT | 1.02 ± 0.029
141 | CATATGGGGC | 1.048 ± 0.00092
142 | TTTCCGGCGG | 1.12 ± 0.09
143 | AGTTAGGGGC | 0.995 ± 0.053
144 | TCATTAGCTT | 0.991 ± 0.012
145 | TATAGGGGTC | 0.968 ± 0.014
146 | AAAGGCGTGG | 0.9555 ± 0.0064
147 | TTTCTGACGT | 1.09 ± 0.057
148 | ATGGTGAGCG | 0.978 ± 0.017
149 | TGGCTTGAGT | 1.12 ± 0.19
150 | TAATGAGGAA | 1.004 ± 0.01

Row | Sequence | switch fluorescence ratio
151 | TATCGGGATA | 0.994 ± 0.021
152 | GCAGTATCAC | 1.05 ± 0.028
153 | CGGGTTAAAC | 1 ± 0.027
154 | TTTCACAGGA | 1.03 ± 0.025
155 | GGATTTGGAG | 0.993 ± 0.024
156 | CGACATGGTG | 1.07 ± 0.027
157 | TTATTGTGCG | 1.03 ± 0.034
158 | TGTTGTCGGT | 0.988 ± 0.063
159 | TCGGTTGAGA | 1.01 ± 0.021
160 | GTGGGTCGTT | 1 ± 0.031
161 | ATGTTTGGGC | 0.9597 ± 0.0085
162 | GGAACTTGTG | 0.9732 ± 0.0075
163 | TAATGCCTGT | 0.979 ± 0.021
164 | GCCGTGTATG | 1.06 ± 0.14
165 | GGGGCTTTGG | 0.98 ± 0.025
166 | CTGTGTGTTC | 1.01 ± 0.026
167 | CGTCGCGTAT | 1.03 ± 0.021
168 | TTTGGGTTCA | 0.972 ± 0.026
169 | GGGGAGTGAA | 0.992 ± 0.031
170 | TCTGAAAAAG | 2.29 ± 1.9
171 | TATTAAGGAT | 1 ± 0.031
172 | TGTTCGGTGT | 1.008 ± 0.0049
173 | TTAGGCTTGT | 0.996 ± 0.02
174 | TGAAGTGTTG | 0.99 ± 0.019
175 | ACAATAAAAG | 1.05 ± 0.044

Row | Sequence | switch fluorescence ratio
176 | CTGTGGCGCT | 1.01 ± 0.019
177 | TTCGTTGTGC | 1.01 ± 0.02
178 | TTTTTTAGGG | 0.988 ± 0.029
179 | GAATGTCGGG | 0.97965 ± 8.2e-05
180 | GGGGTTAGTT | 0.993 ± 0.023
181 | ATAAGAACCG | 1.07 ± 0.017
182 | GGAGAGGGGC | 0.996 ± 0.091
183 | TAACCAGTTA | 1.04 ± 0.019
184 | GGGCAGGTAG | 1.03 ± 0.031
185 | GCCGCATTGA | 2.01 ± 0.11
186 | GAGTATTAAT | 1.01 ± 0.02
187 | CAGATGGGAG | 1.02 ± 0.014
188 | CGCTTTGTGT | 0.973 ± 0.032
189 | AAAGGGACGT | 0.991 ± 0.051
190 | CAATTTAATG | 0.999 ± 0.019
191 | AGCTGCTACG | 0.996 ± 0.027
192 | TTTAAGAAGG | 1 ± 0.015
193 | CTAATCTAGC | 1.045 ± 0.0017
194 | GAGGGACTCT | 0.964 ± 0.013
195 | GATTGACGGC | 1 ± 0.045
196 | ATAATTATGT | 1 ± 0.018
197 | TATTTGCGCG | 0.967 ± 0.037
198 | CGCTTAGTGG | 1.03 ± 0.0027
199 | TCGTTCGCTA | 3.15 ± 0.39
200 | GCTGCATATA | 1.066 ± 0.0095
